Data: US20180021429A1 (PHARMA FOODS INTERNATIONAL, published 2018)
Like-named read-outs stand apart in the source and are kept apart here.

T1: human FSTL1 (construct not stated) (human, UniProt Q12841 21-308)
T1 construct: also called human FSTL1 antigen; FSTL1 (R&D Systems, Inc. Cat#1694-FN-050)
T1 sequence: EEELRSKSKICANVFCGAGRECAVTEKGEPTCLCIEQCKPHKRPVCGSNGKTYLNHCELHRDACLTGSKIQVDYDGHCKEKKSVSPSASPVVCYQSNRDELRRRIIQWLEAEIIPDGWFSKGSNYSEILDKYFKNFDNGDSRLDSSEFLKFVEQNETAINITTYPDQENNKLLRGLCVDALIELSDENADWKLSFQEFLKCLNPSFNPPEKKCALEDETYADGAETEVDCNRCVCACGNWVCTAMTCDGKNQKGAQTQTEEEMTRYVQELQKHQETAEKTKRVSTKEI

T2: His-tagged mouse FSTL1 (amino acid sequence of mouse FSTL1 used in Examples, SEQ ID NO: 72) (mouse, UniProt Q62356 19-306)
T2 sequence: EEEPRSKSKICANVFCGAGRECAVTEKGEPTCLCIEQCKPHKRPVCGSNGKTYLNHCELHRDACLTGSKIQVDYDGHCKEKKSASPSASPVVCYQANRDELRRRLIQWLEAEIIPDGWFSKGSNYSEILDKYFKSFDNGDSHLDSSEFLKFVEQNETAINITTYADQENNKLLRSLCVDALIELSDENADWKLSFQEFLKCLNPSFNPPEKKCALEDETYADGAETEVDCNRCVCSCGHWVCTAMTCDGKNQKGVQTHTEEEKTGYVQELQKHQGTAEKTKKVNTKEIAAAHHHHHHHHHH


Key:
[1] = biological target: T1, human FSTL1 (construct not stated); experiment: SPR (Biacore T-200), captured antibody, human FSTL1 10 µg/ml; for Dissociation amount (RU): time not given here
Protocol: (§1) The mouse chimeric antibodies were immobilized onto Sensor Chip CM5 (GE Healthcare Japan Corp., BR-1005-30) using Mouse Antibody Capture Kit (GE Healthcare Japan Corp., BR-1008-38), and their affinity for human FSTL1 was calculated using Biacore T-200 (GE Healthcare Japan Corp.).
(§2) First, the exhaustive activity comparison of the obtained antibodies was conducted with the human FSTL1 concentration fixed to 10 μg/ml (Table 33-1, FIG. 28).

[2] = biological target: T2, His-tagged mouse FSTL1 (amino acid …); experiment: ELISA, mouse FSTL1 coated (FIG. 3B)
[3] = biological target: T1, human FSTL1 (construct not stated); experiment: SPR (Biacore T-200), captured antibody, human FSTL1 10 µg/ml; remark: listed apart in the source; for Dissociation amount (RU): time not given here
Protocol: as §1

[4] = biological target: T1, human FSTL1 (construct not stated); experiment: as above; remark: listed apart in the source
Protocol: as §1, §2

[5] = biological target: T1, human FSTL1 (construct not stated); experiment: as above; remark: listed apart in the source
Protocol: as §1, §2

[6] = biological target: T1, human FSTL1 (construct not stated); experiment: SPR (Biacore T-200), antibody on Human Antibody Capture Kit, human FSTL1 0 to 20 µg/ml
Protocol: (§3) Nine IgG1-type humanized antibodies of #6-55 were immobilized onto Sensor Chip CM5 (GE Healthcare Japan Corp., BR-1005-30) using Human Antibody Capture Kit (GE Healthcare Japan Corp., BR-1008-38), and their affinity for human FSTL1 was calculated using Biacore T-200 (GE Healthcare Japan Corp.). […] Among the 9 IgG1-type humanized antibodies of #6-55, a clone composed of a combination “H(2)-L(1)” having a […] KD value was selected as a lead antibody.

[7] = biological target: T1, human FSTL1 (construct not stated); experiment: as above; remark: listed apart in the source
Protocol: as §3

[8] = biological target: T1, human FSTL1 (construct not stated); experiment: as above; remark: listed apart in the source
Protocol: as §3

[9] = biological target: T1, human FSTL1 (construct not stated); experiment: as above; remark: listed apart in the source
Protocol: as §3

| Binder | Binding amount (RU) [1] | Dissociation amount (RU) [1] | binding result [2] | Binding amount (RU) [3] | Dissociation amount (RU) [3] | Binding amount (RU) [4] | Dissociation amount (RU) [4] | Binding amount (RU) [5] | Dissociation amount (RU) [5] | Kd [6] | Kd [7] | Kd [8] | Kd [9] |
| --- | --- | --- | --- | --- | --- | --- | --- | --- | --- | --- | --- | --- | --- |
| anti-FSTL1 antibody clone #10 (chicken-mouse chimeric antibody) (antibody, mouse IgG1, kappa, V domains shown) VH: AVTLDESGGGLQTPGGALSLVCKASGFFFFRIYDMGWVRQAPGKGLEWVAGIDDYGRYTGYGSAVKGRATISRDNGQSTVRLQLNNLRAEDTGTYYCARGAGTGCNSAGCGAYAGSIDAWGHGTEVIVSS VL: ASTQPSSVSANPGETVKLTCSGGGSRYGWYQQKSPGSAPVTVIYYNDKRPSDIPSRFSGSKSGSTATLTITGVQAEDEAVYFCGGYDGSRDAGIFGAGTTLTVLG | 11.7 RU | 6 RU | binds | 11.7 RU | 6 RU | 11.7 RU | 6 RU | 11.7 RU | 6 RU | – | – | – | – |
| humanized #6-55 antibody H(1)-L(1) (IgG1 type) (antibody, V domains shown, Human IgG1 constant region; expressed in HEK293 with a chicken antibody leader; also called h#6-55 H(1)-L(1)) VH: not shown VL: SYELTQPPSVSVSPGQTARITCSGGGNNYGWYQQKPGQAPVTVIYYNDNRPSGIPERFSGSNSGSTTTLTISGVQAEDEADYYCGSWDSNTDSGIFGGGTKLTVLG | – | – | – | – | – | – | – | – | – | 35.2 nM | 35.2 nM | 35.2 nM | 35.2 nM |
| humanized #6-55 antibody H(1)-L(2) (IgG1 type) (antibody, V domains shown, Human IgG1 constant region; expressed in HEK293; also called h#6-55 H(1)-L(2)) VH: not shown VL: SYELTQPPSVSVSPGQTARITCSGGGNNYGWYQQKPGQAPVTVIYYNDNRPSGIPERFSGSTSGSTTTLTISGVQAEDEADYYCGSWDSNTDSGIFGGGTKLTVLG | – | – | – | – | – | – | – | – | – | 25 nM | 25 nM | 25 nM | 25 nM |
| humanized #6-55 antibody H(2)-L(2) (IgG1 type) (antibody, V domains shown, Human IgG1 constant region; expressed in HEK293; also called h#6-55 H(2)-L(2)) VH: EVQLLESGGGLVQPGGSLRLSCAASGFTFSSVTMQWVRQAPGKGLEFVSSVCSGSSTYYAPAVKGRFTISRDNSKNTVYLQMNSLRAEDTAVYYCAKIAGRARWSCTSAAYNIDAWGQGTLVTVSS VL: SYELTQPPSVSVSPGQTARITCSGGGNNYGWYQQKPGQAPVTVIYYNDNRPSGIPERFSGSTSGSTTTLTISGVQAEDEADYYCGSWDSNTDSGIFGGGTKLTVLG | – | – | – | – | – | – | – | – | – | 11.3 nM | 11.3 nM | 11.3 nM | 11.3 nM |
| humanized #6-55 antibody H(1)-L(3) (IgG1 type) (antibody, V domains shown, Human IgG1 constant region; expressed in HEK293; also called h#6-55 H(1)-L(3)) VH: not shown VL: SYELTQPPSVSVSPGQTARITCSGGGNNYGWYQQKPGQAPVTVIYYNDNRPSGIPERFSGSNSGNTATLTISGVQAEDEADYYCGSWDSNTDSGIFGGGTKLTVLG | – | – | – | – | – | – | – | – | – | 26.8 nM | 26.8 nM | 26.8 nM | 26.8 nM |
| humanized #6-55 antibody H(2)-L(3) (IgG1 type) (antibody, V domains shown, Human IgG1 constant region; expressed in HEK293; also called h#6-55 H(2)-L(3)) VH: EVQLLESGGGLVQPGGSLRLSCAASGFTFSSVTMQWVRQAPGKGLEFVSSVCSGSSTYYAPAVKGRFTISRDNSKNTVYLQMNSLRAEDTAVYYCAKIAGRARWSCTSAAYNIDAWGQGTLVTVSS VL: SYELTQPPSVSVSPGQTARITCSGGGNNYGWYQQKPGQAPVTVIYYNDNRPSGIPERFSGSNSGNTATLTISGVQAEDEADYYCGSWDSNTDSGIFGGGTKLTVLG | – | – | – | – | – | – | – | – | – | 45 nM | 45 nM | 45 nM | 45 nM |
| humanized #6-55 antibody H(3)-L(3) (IgG1 type) (antibody, V domains shown, Human IgG1 constant region; expressed in HEK293; also called h#6-55 H(3)-L(3)) VH: EVQLLESGGGLVQPGGSLRLSCAASGFTFSSVTMQWVRQAPGKGLEFVASVCSGSSTYYAPAVKGRVTISRDNSKNTVYLQMNSLRAEDTAVYYCAKIAGRARWSCTSAAYNIDAWGQGTLVTVSS VL: SYELTQPPSVSVSPGQTARITCSGGGNNYGWYQQKPGQAPVTVIYYNDNRPSGIPERFSGSNSGNTATLTISGVQAEDEADYYCGSWDSNTDSGIFGGGTKLTVLG | – | – | – | – | – | – | – | – | – | 24.9 nM | 24.9 nM | 24.9 nM | 24.9 nM |
| anti-FSTL1 antibody clone #5-8 (chicken-mouse chimeric antibody) (antibody, mouse IgG1, kappa, V domains shown) VH: AVTLDESGGGLQTPGGGLSLVCKGSGFTFSSFNMFWVRQAPGKGLEWVAGIGKDGVPKYGTAVDGRATISKDNGQSTMRLQLNNLRAEDTGTYFCAKAAGGCSYDWCGIYTGDIDTWGHGTEVIVSS VL: ASTQPSSVSANPGEAVKITCSGGSGSYYGWYQQKSPGSAPVTVIYNNNQRPSDIPSRFSGSKSGSTATLTITGVQAEDEAVYFCGGYDSSTGHGGIFGAGTTLTVLG | 6.7 RU | 3.4 RU | no binding (tested: antibody diluted from 100 ng/ml) | 6.7 RU | 3.4 RU | 6.7 RU | 3.4 RU | 6.7 RU | 3.4 RU | – | – | – | – |
| anti-FSTL1 antibody clone #8-1 (chicken-mouse chimeric antibody) (antibody, mouse IgG1, kappa, V domains shown) VH: AVTLDESGGGLQTPGGALSLVCKGSGFTFSSFNMFWVRQAPGKGLEWVAGIGKDGVPKYGAAVDGRATISKDNGQSTMRLQLNNLRAEDTGTYFCAKAAGGCSYDWCGIYAGDIDTWGHGTEVIVSS VL: ASTQPSSVSANPGEAVKITCSGGSGSYYGWYQQKSPGSAPVTVIYNNNQRPSDIPSRFSGSKSGSTATLTITGVQAEDEAVYFCGGYDSSSGHGGIFGAGTTLTVLG | 11.1 RU | 12.3 RU | binds | 11.1 RU | 12.3 RU | 11.1 RU | 12.3 RU | 11.1 RU | 12.3 RU | – | – | – | – |
| anti-FSTL1 antibody clone #8-4 (chicken-mouse chimeric antibody) (antibody, mouse IgG1, kappa, V domains shown) VH: AVTLDESGGGLQTPGGGLSLVCKGSGFTLSSFNMFWVRQAPGKGLEWVAGVGKDGGTAYGAAVDGRATISRDSGQSTVRLQLNNLRAEDTGTYFCAKAAGGCSYSWCGAYVGDLDAWGHGTEVIVSS VL: ASSQPSSVSANPGETVKITCSGGSGYYYGWYQQKSPGSAPVTVIYNNDNKPSDIPSRFSGSKSGSTGTLTITGVQVEDEAVYFCGGYDNSGTGIFGAGTTLTVLG | 11.6 RU | 6.2 RU | no binding (tested: antibody diluted from 100 ng/ml) | 11.6 RU | 6.2 RU | 11.6 RU | 6.2 RU | 11.6 RU | 6.2 RU | – | – | – | – |
| anti-FSTL1 antibody clone #6-55 (chicken-mouse chimeric antibody) (antibody, mouse IgG1, kappa, V domains shown, also called Anti-FSTL1 mAb (#6-55)) VH: AVTLDESGGGLQTPGGALSLVCKGSGFTFTSVTMQWVRQAPGKGLEWVASVCSGSSTYYAPAVKGRATISRDNGQSTVRLQLSNLRPEDTGTYYCAKIAGRARWSCTSAAYNIDAWGHGTEVIVSS VL: ASTQPSSVSAIPGETVKITCSGGGNNYGWYQQRSPGSAPVTVIYYNDNRPSNIPSRFSGSTSGSTSTLTITGVQADDEAIYYCGSWDSNTDSGIFGAGTTLTVLG | 11 RU | 1.5 RU | binds | 11 RU | 1.5 RU | 11 RU | 1.5 RU | 11 RU | 1.5 RU | – | – | – | – |
